Experiment [1] addresses T1, human B7H3 on the cell surface (A498, CT26/hB7H3, U87, Detroit562 cells) (human, UniProt Q5ZPR3 29-534).
T1 sequence: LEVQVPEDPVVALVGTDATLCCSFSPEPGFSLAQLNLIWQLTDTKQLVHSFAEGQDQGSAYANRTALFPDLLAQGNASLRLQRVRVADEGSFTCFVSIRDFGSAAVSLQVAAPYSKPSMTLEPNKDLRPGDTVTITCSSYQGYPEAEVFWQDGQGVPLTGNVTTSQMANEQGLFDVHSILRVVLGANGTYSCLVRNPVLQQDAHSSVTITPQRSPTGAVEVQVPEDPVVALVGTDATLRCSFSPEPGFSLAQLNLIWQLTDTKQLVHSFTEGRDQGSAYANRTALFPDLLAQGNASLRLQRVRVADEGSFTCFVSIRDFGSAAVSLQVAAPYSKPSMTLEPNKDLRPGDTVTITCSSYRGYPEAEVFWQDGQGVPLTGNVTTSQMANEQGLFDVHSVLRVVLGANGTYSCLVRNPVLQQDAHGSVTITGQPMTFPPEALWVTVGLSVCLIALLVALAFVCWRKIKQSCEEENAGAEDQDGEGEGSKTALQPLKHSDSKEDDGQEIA
Description: cell-based or functional assay.

The target of experiment [2] is T2, Human CD3 antigen for detection (SinoBiological cat #CT038-H2508H); human CD3 epsilon-His and human CD3 … (human, UniProt P07766 23-126; P04234 22-105).
T2 construct: Bought antigen
Description: Biacore T200 SPR, bispecific antibody captured, CD3 antigen as analyte, 1:1 Langmuir fit. The method, then:
(§1) The detection of antibody affinity to B7H3 and CD3 was performed in the form of capture antibody. BsAb was captured by CM5 biosensor chip (Cat. #BR-1005-30, GE) or Protein A (Cat. #29127556, GE) biosensor chip coupled with Anti-Human IgG Antibody (Cat. #BR-1008-39, Lot. #10260416, GE), and then each antigen flowed through the surface of the chip. The reaction signals were detected in real time with the Biacore T200 instrument to obtain the binding and dissociation curves. After the dissociation of each experimental cycle was completed, the chip was washed and regenerated with regeneration buffer Glycine1.5 (Cat #BR100354, GE) or 3 M MgCl₂ (from Human antibody capture kit, Cat. #BR100839, GE). The data were fitted with the (1:1) Langmuir model using GE Biacore T200 Evaluation version 3.0 software, and the affinity values were obtained.
A general note: In SPR one partner is held on a chip, and binding of the other changes the refractive index at the surface.

Experiment [3] deals with T3, Monkey CD3 antigen for detection (Acro biosystem cat #CDD-C52W4); monkey CD3 epsilon-His and monkey CD3 … (monkey (cyno), UniProt Q95LI5 22-117; Q95LI8 22-105).
T3 construct: Bought antigen
Briefly: Biacore T200 SPR, bispecific antibody captured, antigen as analyte, 1:1 Langmuir fit. As to the method: as §1

The target of experiment [4] is T4, Monkey B7H3 antigen for detection (SinoBiological cat #90806-C08H) (monkey (cyno)).
T4 construct: Bought antigen; also called monkey (cyno) B7H3
T4 chain: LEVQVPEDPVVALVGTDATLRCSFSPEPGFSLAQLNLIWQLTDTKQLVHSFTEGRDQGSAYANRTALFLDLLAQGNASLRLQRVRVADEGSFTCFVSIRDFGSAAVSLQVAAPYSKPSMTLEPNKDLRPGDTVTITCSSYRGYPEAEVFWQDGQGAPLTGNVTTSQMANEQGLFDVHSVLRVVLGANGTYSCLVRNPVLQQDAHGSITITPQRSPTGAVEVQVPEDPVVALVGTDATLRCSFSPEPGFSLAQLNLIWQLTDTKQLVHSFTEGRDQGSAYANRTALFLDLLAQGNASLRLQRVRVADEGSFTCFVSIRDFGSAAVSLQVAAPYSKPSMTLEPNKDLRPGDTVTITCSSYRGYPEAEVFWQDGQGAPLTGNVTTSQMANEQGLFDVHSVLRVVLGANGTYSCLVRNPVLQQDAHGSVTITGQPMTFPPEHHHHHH
The experiment is described as above. The method, then:
as §1

Experiment [5] has as its target T2, Human CD3 antigen for detection …. The experiment is described as above. The method, then: as §1
The target of experiment [6] is T5, Human B7H3 antigen for detection (SinoBiological cat #11188-H08H) (human, UniProt Q5ZPR3 29-461).
T5 construct: Bought antigen
T5 sequence: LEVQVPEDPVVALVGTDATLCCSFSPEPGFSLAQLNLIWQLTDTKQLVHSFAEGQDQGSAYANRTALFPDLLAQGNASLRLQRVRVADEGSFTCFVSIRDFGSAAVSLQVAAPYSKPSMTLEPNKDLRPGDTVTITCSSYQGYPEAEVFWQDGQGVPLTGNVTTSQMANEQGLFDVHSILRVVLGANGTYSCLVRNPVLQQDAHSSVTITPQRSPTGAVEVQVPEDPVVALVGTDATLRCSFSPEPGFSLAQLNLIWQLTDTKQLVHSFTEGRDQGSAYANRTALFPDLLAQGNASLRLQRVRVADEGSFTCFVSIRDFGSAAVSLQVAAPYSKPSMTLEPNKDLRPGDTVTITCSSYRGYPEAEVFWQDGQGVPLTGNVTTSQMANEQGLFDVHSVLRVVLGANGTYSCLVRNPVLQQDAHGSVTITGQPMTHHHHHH
Described as above. As to the method: as §1

The target of experiment [7] is T1, human B7H3 on the cell surface (A498, …). Description: FACS on A498 cells expressing human B7H3, APC anti-human IgG Fc detection, geometric mean fluorescence. The method, then: (§2) The ability of bispecific antibodies to bind to cell surface antigens was detected by FACS method.
(§3) FACS buffer (98% PBS, 2% FBS) was added into a 96-well U-shaped bottom plate (corning, 3795) to resuspend the cells, the serially diluted antibodies were added, incubated at 4° C. for 1 hour, and the plate was washed with FACS buffer twice. Then APC anti-human IgG Fc Antibody (biolegend, Cat #409306, dilution at 1:50) was added into each well, incubated at 4° C. for 30 minutes, washed twice, the cells were resuspended in FACS buffer, and finally the fluorescence signal values were read by FACS CantoII (BD).

For experiment [8] the target is unchanged. Briefly: FACS on CT26/hB7H3 cells over-expressing human B7H3, APC anti-human IgG Fc detection, geometric mean fluorescence. As to the method:
as §2, §3

Experiment [9] concerns the target T2, Human CD3 antigen for detection …. Description: Biacore T200 SPR, bispecific antibody captured, CD3 antigen as analyte. The method, then: as §1

As usually defined, the Kd is the concentration at which binding is half-saturated. What is called EC50 (read off the curve) is the concentration that produces a half-maximal response.

T2 sequence (P07766 other isoform, or with tags, fused parts or gaps H2508H H2508H, chain 1 of 2): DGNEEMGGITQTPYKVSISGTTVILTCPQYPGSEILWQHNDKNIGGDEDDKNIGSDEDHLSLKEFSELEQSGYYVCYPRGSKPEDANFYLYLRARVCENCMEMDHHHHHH
T2 sequence (P04234 other isoform, or with tags, fused parts or gaps H2508H H2508H, chain 2 of 2): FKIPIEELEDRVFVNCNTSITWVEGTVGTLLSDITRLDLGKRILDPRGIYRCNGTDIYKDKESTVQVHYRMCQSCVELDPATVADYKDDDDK
T3 sequence (Q95LI5 other isoform, or with tags, fused parts or gaps mutant, chain 1 of 2): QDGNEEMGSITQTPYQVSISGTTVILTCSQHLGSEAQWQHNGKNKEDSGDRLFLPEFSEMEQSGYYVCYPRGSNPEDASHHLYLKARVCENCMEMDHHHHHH
T3 sequence (Q95LI8 other isoform, or with tags, fused parts or gaps mutant, chain 2 of 2): as the sequence (P04234 other isoform, or with tags, fused parts or gaps H2508H H2508H, chain 2 of 2) above, with I5V, N15K, I20V, S32T, D33N, I34N, T64A, S74N, V83L counted along it

B1: bispecific antibody 127 (AFF3-3) (bispecific antibody)
chain 1: not shown
chain 2: QTVVTQEPSFSVSPGGTVTLTCGLSSGSVSTSHYPSWYQQTPGQAPRMLIYNTNTRSSGVPDRFSGSILGNKAALTITGAQADDESDYYCAIHVDRDIWVFGGGTKLTVLGGGGSGGGGSGGGGSQVQLVQSGGGVVQPGTSLRLSCAASGFIFSSSAMHWVRQAPGKGLEWVAVISYDGSNKYYVDSVKGRFTISRDNSKNTLYLQMNSLRAEDTAVYYCARSARLYASFDYWGQGALVTVSSGGGDKTHTCPPCPAPEAAGGPSVFLFPPKPKDTLMISRTPEVTCVVVDVSHEDPEVKFNWYVDGVEVHNAKTKPREEQYNSTYRVVSVLTVLHQDWLNGKEYKCKVSNKALPAPIEKTISKAKGQPREPQVCTLPPSREEMTKNQVSLSCAVKGFYPSDIAVEWESNGQPENNYKTTPPVLDSDGSFFLVSKLTVDKSRWQQGNVFSCSVMHEALHNHYTQKSLSLSPGK
notes: B7H3 bivalent CD3-B7H3 bispecific antibody, CD3 VH HRH-3
Turning to B1, the “Emax (%), PBMC-mediated killing of A498 cells (B7H3 high)” value in experiment [1] turned out to be 67.5%. In addition, the “Emax (%), PBMC-mediated killing of Detroit562 cells (B7H3 low)” value in experiment [1] was 26.5%. For the same molecule, the “Emax (%), PBMC-mediated killing of U87 cells (B7H3 intermediate)” value in experiment [1] was determined as 69.5%. In addition, the “IC50 (nM), PBMC-mediated killing of A498 cells (B7H3 high)” value in [1] worked out at 2.4 nM. Besides, the “IC50 (nM), PBMC-mediated killing of Detroit562 cells (B7H3 low)” value in [1] stood at 15.8 nM. Further, the “IC50 (nM), PBMC-mediated killing of U87 cells (B7H3 intermediate)” value in experiment [1] came to 8.2 nM. Also, the equilibrium dissociation constant (Kd) in experiment [2] worked out at 97.2 nM; in experiment [3], 1.24 nM; in experiment [4] it was 5.61 nM; in experiment [5], 84.7 nM; in [6], 4.29 nM. The 50% effective concentration (EC50 (read off the curve)) in experiment [7] was approximately 40 nM; in experiment [8], approximately 2 nM.

B2: bispecific antibody 155 (AFF3-5) (bispecific antibody)
chain 1: not shown
chain 2: QTVVTQEPSFSVSPGGTVTLTCGLSSGSVSTSHYPSWYQQTPGQAPRMLIYNTNTRSSGVPDRFSGSILGNKAALTITGAQADDESDYYCAIHVDRDIWVFGGGTKLTVLGGGGSGGGGSGGGGSQVQLVQSGGGVVQPGTSLRLSCAASGFIFSSSAMHWVRQAPGKGLEWVAVISYDGSNKYYVDSVKGRFTISRDNSKNTLYLQMNSLRAEDTAVYYCARSARLYASFDYWGQGALVTVSSGGGDKTHTCPPCPAPEAAGGPSVFLFPPKPKDTLMISRTPEVTCVVVDVSHEDPEVKFNWYVDGVEVHNAKTKPREEQYNSTYRVVSVLTVLHQDWLNGKEYKCKVSNKALPAPIEKTISKAKGQPREPQVCTLPPSREEMTKNQVSLSCAVKGFYPSDIAVEWESNGQPENNYKTTPPVLDSDGSFFLVSKLTVDKSRWQQGNVFSCSVMHEALHNHYTQKSLSLSPGK
notes: B7H3 bivalent CD3-B7H3 bispecific antibody, CD3 VH HRH-5
Regarding B2, the binding result in [9] is “no binding”.

B3: bispecific antibody 156 (AFF3-6) (bispecific antibody)
chain 1: not shown
chain 2: QTVVTQEPSFSVSPGGTVTLTCGLSSGSVSTSHYPSWYQQTPGQAPRMLIYNTNTRSSGVPDRFSGSILGNKAALTITGAQADDESDYYCAIHVDRDIWVFGGGTKLTVLGGGGSGGGGSGGGGSQVQLVQSGGGVVQPGTSLRLSCAASGFIFSSSAMHWVRQAPGKGLEWVAVISYDGSNKYYVDSVKGRFTISRDNSKNTLYLQMNSLRAEDTAVYYCARSARLYASFDYWGQGALVTVSSGGGDKTHTCPPCPAPEAAGGPSVFLFPPKPKDTLMISRTPEVTCVVVDVSHEDPEVKFNWYVDGVEVHNAKTKPREEQYNSTYRVVSVLTVLHQDWLNGKEYKCKVSNKALPAPIEKTISKAKGQPREPQVCTLPPSREEMTKNQVSLSCAVKGFYPSDIAVEWESNGQPENNYKTTPPVLDSDGSFFLVSKLTVDKSRWQQGNVFSCSVMHEALHNHYTQKSLSLSPGK
notes: B7H3 bivalent CD3-B7H3 bispecific antibody, CD3 VH HRH-6
For the molecule B3, the binding result in experiment [9] is “no binding”.

The values above are taken from US20220242953A1 (JIANGSU HENGRUI MEDICINE, published 2022).
